Reference: the supplement of paper PMC7125110
± gives the standard error. For some of these results: Variants at the floor of the assay were thinned out.

B1: glmS ribozyme (parent)
chain: AUAAAAGCGCCAGAACUACAGAAAUGUAGUUGACGAGGAGGAGGUUUAUCGAAUUUUCGGCGGAUGCCUCCAAA

What was measured:
Conditions in all cases: with glucosamine-6-phosphate
glucosamine-6-phosphate [1] = variants of: B1; assay: kcat; higher = faster cleavage; RNA array
Outline: (§1)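 In situ transcription by E. coli RNA polymerase produced barcoded ribozyme variants on sequenced MiSeq chips, and a hybridised Cy3 probe tracked them at 37 °C. Glucosamine-6-phosphate was flowed in at 40 μM to 10 mM in HEPES/KCl/Mg(OAc)2 buffer. kcat and KM were taken from weighted Michaelis–Menten fits of kobs values from exponential decay fits.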

glucosamine-6-phosphate [2] = variants of: B1; assay: self-cleavage kobs at 40 uM GlcN6P; higher = faster cleavage; RNA array
Outline: as §1

glucosamine-6-phosphate [3] = variants of: B1; assay: self-cleavage kobs at 640 uM GlcN6P; higher = faster cleavage; RNA array
Outline: as §1

glucosamine-6-phosphate [4] = variants of: B1; assay: self-cleavage kobs at 2500 uM GlcN6P; higher = faster cleavage; RNA array
Outline: as §1

glucosamine-6-phosphate [5] = variants of: B1; assay: self-cleavage kobs at 10000 uM GlcN6P; higher = faster cleavage; RNA array
Outline: as §1

glucosamine-6-phosphate [6] = variants of: B1; assay: self-cleavage kobs at 160 uM GlcN6P; higher = faster cleavage; RNA array
Outline: as §1

glucosamine-6-phosphate [7] = variants of: B1; assay: KM; higher = weaker cofactor use; RNA array
Outline: as §1

| Variant | kcat (glucosamine-6-phosphate [1]) [s⁻¹] | self-cleavage kobs at 40 uM GlcN6P (glucosamine-6-phosphate [2]) [s⁻¹] | self-cleavage kobs at 640 uM GlcN6P (glucosamine-6-phosphate [3]) [s⁻¹] | self-cleavage kobs at 2500 uM GlcN6P (glucosamine-6-phosphate [4]) [s⁻¹] | self-cleavage kobs at 10000 uM GlcN6P (glucosamine-6-phosphate [5]) [s⁻¹] | self-cleavage kobs at 160 uM GlcN6P (glucosamine-6-phosphate [6]) [s⁻¹] | KM (glucosamine-6-phosphate [7]) [mM] |
| --- | --- | --- | --- | --- | --- | --- | --- |
| A12C A23C U54G C70A | 0.00013 ± 1.8e-05 | 8.19e-05 ± 2.8e-05 | 0.000146 ± 2.1e-05 | 0.000103 ± 1.9e-05 | 0.000154 ± 2.8e-05 |  |  |
| C58U G59U | < 1e-05 | < 1e-05 | < 1e-05 |  | < 1e-05 |  |  |
| C58G C71A | 3.56e-05 ± 9.8e-06 |  |  | 4.27e-05 ± 7.5e-06 | 1.89e-05 ± 9.2e-06 | 4.45e-05 ± 1e-05 |  |
| G7A G32A C50G | 4.21e-05 ± 1.3e-05 | 4.2e-05 ± 1.6e-05 |  | 6.89e-05 ± 2.8e-05 |  | 4.85e-05 ± 1.9e-05 |  |
| C10U G38U | < 1e-05 |  |  |  |  |  |  |
| A39U U55A | 0.0539 ± 0.0098 | 0.000396 ± 9.4e-05 | 0.00564 ± 0.001 | 0.0142 ± 0.0033 | 0.0376 ± 0.0091 | 0.00146 ± 0.00024 | 5.71 ± 1.2 |
| A12U G13C | < 1e-05 | < 1e-05 | < 1e-05 |  |  | < 1e-05 |  |
| U49G U54G C67A | 0.00023 ± 5.1e-05 |  | 0.000235 ± 5.1e-05 | 0.000269 ± 7.4e-05 | 0.000194 ± 3.6e-05 |  |  |
| G29A U65A | 0.000167 ± 6.7e-05 |  | 0.000132 ± 3e-05 | 0.000122 ± 2.8e-05 |  |  |  |
| G13U A39C | 0.000234 ± 2e-05 |  | 2.78e-05 ± 6e-06 | 8.65e-05 ± 1e-05 | 0.000158 ± 2.7e-05 |  | 4.49 ± 0.6 |
| C11U A39C | 0.000759 ± 0.00011 |  | 8.75e-05 ± 1.3e-05 | 0.000299 ± 5e-05 | 0.00051 ± 5.5e-05 |  | 4.65 ± 1.1 |
| U30G A48G | < 1e-05 | < 1e-05 |  |  |  | < 1e-05 |  |
| A36G C70U | 3.34e-05 ± 3.8e-06 |  |  | 3.3e-05 ± 1.3e-05 | 2.96e-05 ± 1.1e-05 |  |  |
| U31G G32C | 0.000616 ± 8.5e-05 |  | 6.65e-05 ± 1.1e-05 | 0.000186 ± 2.9e-05 | 0.000405 ± 8.2e-05 |  | 5.52 ± 1.1 |
| U45A C70A | 0.000375 ± 0.00017 |  | 0.000179 ± 3.7e-05 | 0.000225 ± 3.4e-05 |  | 2.63e-05 ± 1.1e-05 |  |
| G29A U30G | 0.00554 ± 0.0022 | 0.000159 ± 2.5e-05 | 0.00125 ± 0.00029 | 0.0021 ± 0.00068 | 0.00513 ± 0.00085 | 0.000288 ± 5.9e-05 |  |
| A15G A48C | 0.000466 ± 1.6e-05 |  | 9.04e-05 ± 1.7e-05 | 0.000212 ± 3.2e-05 | 0.000365 ± 3.6e-05 | 2.29e-05 ± 1.1e-05 | 2.83 ± 0.21 |

| Variant | kcat (glucosamine-6-phosphate [1]) [s⁻¹] | self-cleavage kobs at 40 uM GlcN6P (glucosamine-6-phosphate [2]) [s⁻¹] | self-cleavage kobs at 640 uM GlcN6P (glucosamine-6-phosphate [3]) [s⁻¹] | self-cleavage kobs at 2500 uM GlcN6P (glucosamine-6-phosphate [4]) [s⁻¹] | self-cleavage kobs at 10000 uM GlcN6P (glucosamine-6-phosphate [5]) [s⁻¹] | self-cleavage kobs at 160 uM GlcN6P (glucosamine-6-phosphate [6]) [s⁻¹] | KM (glucosamine-6-phosphate [7]) [mM] |
| --- | --- | --- | --- | --- | --- | --- | --- |
| G13U A36C | < 1e-05 |  |  |  | < 1e-05 |  |  |
| A33G A64G C70A | 5.02e-05 ± 9.3e-06 |  |  |  |  |  |  |
| A14C G29C | 0.00095 ± 0.00038 |  | 6.24e-05 ± 1.5e-05 | 0.000139 ± 2.5e-05 | 0.000438 ± 6.2e-05 |  |  |
| U55G C67A | 0.000773 ± 0.00021 | 0.000267 ± 4.8e-05 | 0.000772 ± 0.00013 |  |  | 0.000394 ± 8.8e-05 |  |
| C16G U49G | 6.89e-05 ± 1.1e-05 |  |  | 5.02e-05 ± 1.3e-05 | 5.76e-05 ± 1.1e-05 |  |  |
| G66A C68U | 0.00532 ± 0.0011 | 0.000228 ± 2.5e-05 | 0.00267 ± 0.00085 | 0.00284 ± 0.00078 | 0.00549 ± 0.0008 | 0.000531 ± 0.00015 | 0.983 ± 0.28 |
| G13C A52G | 1.51e-05 ± 1.5e-06 |  |  |  |  |  | 3.66 ± 1 |
| U31C A53G | 0.00573 ± 0.0015 | 0.000158 ± 1.8e-05 | 0.00167 ± 0.00042 | 0.00309 ± 0.00042 | 0.00495 ± 0.00059 | 0.000305 ± 5.6e-05 | 1.96 ± 0.74 |
| C16G A64G | 0.00475 ± 0.0023 | 0.000127 ± 1.8e-05 | 0.00103 ± 0.00014 | 0.00156 ± 0.00036 | 0.00584 ± 0.00071 | 0.000468 ± 0.00021 |  |
| A14C G26A | 0.00194 ± 0.00022 | 6.7e-05 ± 1.7e-05 | 0.000887 ± 0.00023 | 0.00142 ± 0.00041 | 0.00166 ± 0.00037 |  | 1.03 ± 0.19 |
| C16G U30A | 0.000474 ± 6e-05 |  | 0.00012 ± 2.3e-05 | 0.000313 ± 6.1e-05 | 0.000372 ± 9.2e-05 | 3.9e-05 ± 1.2e-05 | 1.78 ± 0.37 |
| A48C C71U | 0.000393 ± 1.6e-05 |  | 4.42e-05 ± 7.8e-06 | 0.000123 ± 1.7e-05 | 0.00026 ± 2.4e-05 |  | 5.22 ± 0.39 |
| G37A U47C | 0.000634 ± 0.00022 |  | 0.000181 ± 3.8e-05 | 0.000398 ± 7.7e-05 | 0.00103 ± 0.00045 | 8.31e-05 ± 2.2e-05 |  |
| U30A U55C G66C | 8.18e-05 ± 2.7e-05 |  |  | 0.000101 ± 2e-05 | 6.89e-05 ± 1.1e-05 |  |  |
| C68G U69G | 2.17e-05 ± 5e-06 |  |  | 2.65e-05 ± 1.2e-05 |  |  |  |
| U45A C58U | 0.000219 ± 4.8e-05 | < 1e-05 |  | 9.07e-05 ± 1.6e-05 | 0.000149 ± 2.4e-05 |  | 4.21 ± 1.9 |
| C16U U31C | 0.00735 ± 0.00094 | 0.000149 ± 2.1e-05 | 0.00161 ± 0.00048 | 0.0036 ± 0.00062 | 0.00694 ± 0.0011 | 0.000588 ± 0.00011 | 1.98 ± 0.35 |
